Measured values: US20220281976A1

Assays:
human CD33 (human) [1] = molecular target: human CD33 (human) (UniProt P20138); assay: flow cytometry, human primary macrophages
human CD33 (human) [2] = molecular target: human CD33 (human) (UniProt P20138); assay: cell-based or functional assay
human CD33 (human) [3] = molecular target: human CD33 (human) (UniProt P20138); assay: flow cytometry, human primary monocytes
human CD33 (human) [4] = molecular target: human CD33 (human) (UniProt P20138); assay: flow cytometry, human primary dendritic cells
human CD33 (human) [5] = molecular target: human CD33 (human) (UniProt P20138); assay: flow cytometry, human primary T cells

Chain of human CD33 (human) (P20138 18-364): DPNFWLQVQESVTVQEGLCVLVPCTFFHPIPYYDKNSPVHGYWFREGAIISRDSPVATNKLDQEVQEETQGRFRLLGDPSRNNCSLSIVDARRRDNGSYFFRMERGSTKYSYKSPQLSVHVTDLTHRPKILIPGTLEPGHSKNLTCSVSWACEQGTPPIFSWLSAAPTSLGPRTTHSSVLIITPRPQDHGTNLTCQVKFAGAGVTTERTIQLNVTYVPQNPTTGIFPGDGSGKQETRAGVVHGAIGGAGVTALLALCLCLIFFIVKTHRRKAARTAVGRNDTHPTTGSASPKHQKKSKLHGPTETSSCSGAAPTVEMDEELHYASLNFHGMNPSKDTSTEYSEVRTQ

Macrophage MFI (human CD33 (human) [1]): 656 | Percent CD33 Surface Expression, DC % CD33 (human CD33 (human) [2]): 86% | Percent CD33 Surface Expression, Monocyte % CD33 (human CD33 (human) [2]): 88% | Monocyte MFI (human CD33 (human) [3]): 126 | DC MFI (human CD33 (human) [4]): 496 | T cell MFI (human CD33 (human) [5]): 29.3
B1: C-51 (antibody, V domains shown)
VH: QLQLQESGPGLVKPSETLSLTCTVSGGSISSSSYYWGWIRQPPGKGLEWIGSIYYSGSTYYNPSLKSRVTISVDTSKNQFSLKLSSVTAADTAVYYCARGAPHDYGGGVGWFDPWGQGTTVTVSS
VL: DIQMTQSPSSVSASVGDRVTITCRASQGISSWLAWYQQKPGKAPKLLIYAASNLQSGVPSRFSGSGSGTDFTLTISSLQPEDFATYYCQQSRVFPWTFGGGTKVEIK
